In the supplement of paper PMC10567573 one finds protein stability index data, which are given here for 36 sequences.

± gives the standard deviation.

The nature of the series: protein stability index of a GFP-peptide fusion (GPS, HEK-293T) (PSI 1-6); higher = more stable. As to conditions: c terminus: a fixed tail appended.
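Further: 24-mer peptide tiles fused after GFP, lentivirally expressed, FACS-sorted into six equal bins by GFP/DsRed ratio, decoded by Illumina sequencing, PSI is the read-weighted mean bin number.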

With LRSPNNFLSYYRLTRFLSRVIKCD [CCND1], the protein stability index was determined as 2.24 ± 0.42 (treatment: DMSO) and 2.44 ± 0.2 (treatment: MLN4924 1 uM, 8 h).

As to LSQRTITVGVYEAAKLLNVDPDNV [GADD45A], the protein stability index runs as follows: (treatment: DMSO) 3.16 ± 0.29; (treatment: MLN4924 1 uM, 8 h) 3.14 ± 0.19.

LSRAYDGTTYLPGIVGLNNIKAND [USP39] had a protein stability index (treatment: DMSO) of 3.45 ± 0.24 and a protein stability index (treatment: MLN4924 1 uM, 8 h) of 3.54 ± 0.32.

As for LSRKLMQLQHEKAELEQHLEQEQE [CCDC6], the protein stability index reads like this: (treatment: DMSO) 5.27 ± 0.27; (treatment: MLN4924 1 uM, 8 h) 5.02 ± 0.2.

Take LSRKVAKLVHFLLLKYRAREPVTK [MAGEA6]: the protein stability index reads like this: (treatment: DMSO) 2.7 ± 0.37; (treatment: MLN4924 1 uM, 8 h) 2.43 ± 0.67.

On to LSTPDSQSLRCDLIRYICGVVHPS [INTS3], for which the protein stability index was determined as 2.29 ± 0.46 (treatment: DMSO) and 2.29 ± 0.3 (treatment: MLN4924 1 uM, 8 h).

Turning to LTILPTEIETWVREHCPENRERVV [ZNF449], the protein stability index is, setting by setting: (treatment: DMSO) 3.23 ± 0.2; (treatment: MLN4924 1 uM, 8 h) 3.42 ± 0.29.

LTSRIKGDWIGLYRHFLKSPNFDG [DENND6A]: the protein stability index by setting is: (treatment: DMSO) 2.01 ± 0.31; (treatment: MLN4924 1 uM, 8 h) 2.37 ± 0.35.

LTVEGFQSWMWRGLTFLLPFLFFG [TMEM120A] came in with a protein stability index (treatment: DMSO) of 2.98 ± 0.45 and a protein stability index (treatment: MLN4924 1 uM, 8 h) of 2.74 ± 0.035.

Take LTYSTRMSQTVQRMLVAASWACAF [OR3A1]: the protein stability index runs as follows: (treatment: DMSO) 3.35 ± 0.71; (treatment: MLN4924 1 uM, 8 h) 3 ± 0.65.

As for LVDKETDKRHVEQKIQFKRETASL [PDZK1], the protein stability index amounted to 4.72 ± 0.63 (treatment: DMSO) and 4.52 ± 0.92 (treatment: MLN4924 1 uM, 8 h).

Take LVEKGVLTTEKQNFLLFDMTTHPL [GOLPH3]: the protein stability index (treatment: DMSO) is 2.51 ± 0.27 and the protein stability index (treatment: MLN4924 1 uM, 8 h) was 2.5 ± 0.3.

Consider LVNPLDPRNADKIRVKIADLGNAC [SRPK2], for which the protein stability index is, setting by setting: (treatment: DMSO) 2.92 ± 0.18; (treatment: MLN4924 1 uM, 8 h) 2.97 ± 0.22.

On to LVSDDPRCRLSLDDRVLSSLVRDT [POP5], for which the protein stability index runs as follows: (treatment: DMSO) 3.44 ± 0.24; (treatment: MLN4924 1 uM, 8 h) 3.68 ± 0.12.

LWQFLLELLTDKSCQSFISWTGDG [ETS1] came in with a protein stability index (treatment: DMSO) of 2.96 ± 0.47 and a protein stability index (treatment: MLN4924 1 uM, 8 h) of 3.13 ± 0.46.

With LYAVGGHDGSSYLNSVERYDPKTN [KLHL20], the protein stability index worked out at 3.72 ± 0.22 (treatment: DMSO) and 3.79 ± 0.23 (treatment: MLN4924 1 uM, 8 h).

Take LYFHHYFPAMLFSSMLTGILWDTL [POMT2]: the protein stability index reads like this: (treatment: DMSO) 2.84 ± 0.34; (treatment: MLN4924 1 uM, 8 h) 3.21 ± 0.23.

As for LYGTKGNYTSRVWEYSSSIQNSDN [TRIM29], the protein stability index is, setting by setting: (treatment: DMSO) 3.04 ± 0.2; (treatment: MLN4924 1 uM, 8 h) 2.83 ± 0.26.

Regarding LYVRRVFIMDSCDELIPEYLNFIR [HSP90AB1], the protein stability index by setting is: (treatment: DMSO) 2.37 ± 0.58; (treatment: MLN4924 1 uM, 8 h) 2.68 ± 0.86.

Turning to MADERKDEAKAPHWTSAPLTEASA [MAP2], the protein stability index reads like this: (treatment: DMSO) 5.22 ± 0.43; (treatment: MLN4924 1 uM, 8 h) 5.41 ± 0.19.

As to MAMPNGFHEDGPQGPGGDEDDDEE [PSD2], the protein stability index was found to be 5.41 ± 0.3 (treatment: DMSO) and 5.47 ± 0.18 (treatment: MLN4924 1 uM, 8 h).

On to MDVMPGEGDLPQMEVGSGSRELSL [EID1], for which the protein stability index (treatment: DMSO) stood at 4.8 ± 0.2 and the protein stability index (treatment: MLN4924 1 uM, 8 h) came to 5.06 ± 0.17.

Turning to MEIFMEEMREIRRKLRELQLRNCL [BEX3], the protein stability index was 3.28 ± 0.41 (treatment: DMSO) and 2.52 ± 0.97 (treatment: MLN4924 1 uM, 8 h).

For MEKMLAGCFLLILGQIVLLPAEAR [MATN2], the protein stability index was found to be 3.46 ± 0.56 (treatment: DMSO) and 3.01 ± 0.3 (treatment: MLN4924 1 uM, 8 h).

MEKYERIRVVGRGAFGIVHLCLRK [NEK8] displayed a protein stability index (treatment: DMSO) of 2.09 ± 0.21 and a protein stability index (treatment: MLN4924 1 uM, 8 h) of 2.33 ± 0.27.

MELKVGDFGLAARLEPLEHRRRTI [PLK2]: the protein stability index (treatment: DMSO) was found to be 3.23 ± 0.16 and the protein stability index (treatment: MLN4924 1 uM, 8 h) was 3.43 ± 0.25.

As for MEVLPCSRVAHIERTRKPYNNDID [GALNT9], the protein stability index runs as follows: (treatment: DMSO) 2.46 ± 0.26; (treatment: MLN4924 1 uM, 8 h) 2.44 ± 0.28.

For the sequence MHSFPPLLLLLFWGVVSHSFPATL [MMP1], the protein stability index turned out to be 3.14 ± 0.31 (treatment: DMSO) and 3.12 ± 0.25 (treatment: MLN4924 1 uM, 8 h).

On to MKRDVQEGQARCLAHLGRHMEALE [C8orf76], for which the protein stability index was 3.66 ± 0.22 (treatment: DMSO) and 3.97 ± 0.35 (treatment: MLN4924 1 uM, 8 h).

With MLNMWKVRELVDKATNVVMNYSEI [CLINT1], the protein stability index runs as follows: (treatment: DMSO) 2.4 ± 0.17; (treatment: MLN4924 1 uM, 8 h) 2.23 ± 0.22.

For MLRTGLGVIRMWADEGSRNSRFQM [NETO1], the protein stability index (treatment: DMSO) was determined as 2.5 ± 0.11 and the protein stability index (treatment: MLN4924 1 uM, 8 h) stood at 2.39 ± 0.4.

Consider MMDLRNTPAKSLDKFIEDYLLPDT [OAS1], for which the protein stability index reads like this: (treatment: DMSO) 3.04 ± 0.16; (treatment: MLN4924 1 uM, 8 h) 3.15 ± 0.28.

With MNYSEIESKVREATNDDPWGPSGQ [CLINT1], the protein stability index by setting is: (treatment: DMSO) 4.84 ± 0.22; (treatment: MLN4924 1 uM, 8 h) 4.96 ± 0.14.

With MPNGCSDDVLPWRRTAENKLDTKY [DCTD], the protein stability index was 4 ± 0.1 (treatment: DMSO) and 3.87 ± 0.29 (treatment: MLN4924 1 uM, 8 h).

In the case of MSAPGSPDQAYDFLLKFLLVGDRD [RAB40A], the protein stability index (treatment: DMSO) worked out at 2.27 ± 0.23 and the protein stability index (treatment: MLN4924 1 uM, 8 h) was 2.42 ± 0.38.

MSRMQSKEYPVVPRSTVRQKVASN [TBX5]: the protein stability index runs as follows: (treatment: DMSO) 4.25 ± 0.24; (treatment: MLN4924 1 uM, 8 h) 4.15 ± 0.087.
